Assay [1] concerns the target T1, hLTBP1-proTGFβ1 (human, UniProt Q14766 347-1721; P01137 30-390, limits assumed).
T1 construct: Large latent complex (LLC): proTGFβ1 dimer disulfide-linked to one presenting molecule; recombinant, purified, biotinylated in BLI/SPR; The same id is used for the complex made by transfected cells in the reporter assays; also called human LTBP1-proTGFβ1 complex; LTBP1-ProTGFb1
Kind of assay: MSD-SET, hIgG4. Here is the method:
(§1) For solution equilibrium titration-based binding assays, protein complexes that comprise one of the presenting molecules such as those shown above may be employed as antigen (presenting molecule-TGFβ1 complex, or an LLC). Test antibodies are allowed to form antigen-antibody complex in solution. Antigen-antibody reaction mixtures are incubated to allow an equilibrium to be reached; the amount of the antigen-antibody complex present in the assay reactions can be measured by suitable means well known in the art. As compared to BLI-based assays, SET-based assays are less affected by on/off rates of the antigen-antibody complex, allowing sensitive detection of very high affinity interactions.

Assay [2] concerns the target T2, hLTBP3-proTGFβ1 (human, UniProt Q9NS15 44-1303; P01137 30-390, limits assumed).
T2 construct: LLC as m1; Same id used for the cell-made complex in reporter assays; also called human LTBP3-proTGFβ1 complex; LTBP3-ProTGFb1
Kind of assay: MSD-SET, hIgG4. Here is the method: as §1

Assay [3] deals with T3, hGARP-proTGFβ1 (human, UniProt Q14392 18-627; P01137 30-390, limits assumed).
T3 construct: LLC as m1; Same id used for the cell-surface complex in reporter assays; also called human GARP-proTGFβ1 complex; GARP-ProTGFb1
T3 sequence (Q14392 18-627 limits assumed, chain 1 of 2): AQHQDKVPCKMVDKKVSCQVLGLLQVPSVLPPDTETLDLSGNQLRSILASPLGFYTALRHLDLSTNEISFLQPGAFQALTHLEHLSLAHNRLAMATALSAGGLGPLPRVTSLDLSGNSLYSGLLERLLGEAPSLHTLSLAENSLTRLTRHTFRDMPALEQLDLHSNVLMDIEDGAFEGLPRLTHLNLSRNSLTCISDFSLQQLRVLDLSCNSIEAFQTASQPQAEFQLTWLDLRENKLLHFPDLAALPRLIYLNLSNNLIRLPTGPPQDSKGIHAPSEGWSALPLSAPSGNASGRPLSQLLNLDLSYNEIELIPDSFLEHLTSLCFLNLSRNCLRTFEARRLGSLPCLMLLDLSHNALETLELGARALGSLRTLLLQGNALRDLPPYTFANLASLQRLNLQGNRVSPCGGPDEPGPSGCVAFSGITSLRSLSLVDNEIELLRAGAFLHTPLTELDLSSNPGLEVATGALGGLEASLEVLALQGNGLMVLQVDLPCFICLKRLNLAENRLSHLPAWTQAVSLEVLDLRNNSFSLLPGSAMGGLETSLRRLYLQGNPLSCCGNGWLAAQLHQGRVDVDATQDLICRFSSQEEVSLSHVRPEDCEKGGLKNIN
T3 sequence (P01137 30-390 limits assumed, chain 2 of 2): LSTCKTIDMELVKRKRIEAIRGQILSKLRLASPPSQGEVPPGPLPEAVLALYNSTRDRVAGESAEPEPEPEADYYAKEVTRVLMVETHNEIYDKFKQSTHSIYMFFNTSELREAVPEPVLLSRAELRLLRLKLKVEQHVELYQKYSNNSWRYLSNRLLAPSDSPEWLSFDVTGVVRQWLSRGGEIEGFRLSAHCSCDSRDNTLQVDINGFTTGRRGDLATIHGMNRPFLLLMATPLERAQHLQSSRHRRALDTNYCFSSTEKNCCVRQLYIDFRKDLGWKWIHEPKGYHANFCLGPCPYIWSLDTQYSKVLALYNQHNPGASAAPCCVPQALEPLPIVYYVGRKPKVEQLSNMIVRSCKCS
Kind of assay: MSD-SET, hIgG4. Here is the method: as §1

Assay [4] concerns the target T4, hLRRC33-proTGFβ1 (human, UniProt Q86YC3 19-650; P01137 30-390, limits assumed).
T4 construct: LLC as m1; Same id used for the cell-surface complex in reporter assays; also called human LRRC33-proTGFβ1 complex; LRRC33-ProTGFb1
Kind of assay: MSD-SET, hIgG4. Here is the method: as §1

In assay [5] the target is T1, hLTBP1-proTGFβ1. Kind of assay: cell-based or functional assay.
The target in assay [6] is T2, hLTBP3-proTGFβ1. Kind of assay: cell-based or functional assay.
Assay [7] deals with T3, hGARP-proTGFβ1. Kind of assay: cell-based or functional assay.
The target of assay [8] is T4, hLRRC33-proTGFβ1. Kind of assay: cell-based or functional assay.
Another assay addresses mLRRC33-proTGFβ1 (murine, UniProt Q8BMT4 20-651). Kind of assay: MSD-SET.
The target of assay [9] is T1, hLTBP1-proTGFβ1. Kind of assay: MSD-SET.
Assay [10] deals with T2, hLTBP3-proTGFβ1. Kind of assay: MSD-SET.
Assay [11] concerns the target T3, hGARP-proTGFβ1. Kind of assay: MSD-SET.
For assay [12], the target named is T4, hLRRC33-proTGFβ1. Kind of assay: MSD-SET.
The target of a further assay is T5, mLTBP1-proTGFβ1 (mouse).
T5 construct: Murine LLC; also called murine LTBP1-proTGFβ1 complex
Kind of assay: MSD-SET.

In the next assay the target is T6, mLTBP3-proTGFβ1 (mouse).
T6 construct: Murine LLC; also called murine LTBP3-proTGFβ1 complex
Kind of assay: MSD-SET.

The next assay has as its target T7, mGARP-proTGFβ1 (mouse).
T7 construct: Murine LLC; also called murine GARP-proTGFβ1 complex
Kind of assay: MSD-SET.

The target of assay [13] is T1, hLTBP1-proTGFβ1. Kind of assay: BLI (Octet). In general terms: In BLI a coated tip is dipped into the sample, and binding shifts an interference pattern.
In assay [14] the target is T2, hLTBP3-proTGFβ1. Kind of assay: BLI (Octet).
Assay [15] addresses T3, hGARP-proTGFβ1. Kind of assay: BLI (Octet).
The target in assay [16] is T4, hLRRC33-proTGFβ1. Kind of assay: BLI (Octet).
Assay [17] has as its target endogenous LTBP-proTGFβ1 of human LN229 cells (human, UniProt P01137 30-390). Kind of assay: cell-based or functional assay.
Assay [18] deals with T1, hLTBP1-proTGFβ1. Kind of assay: cell-based or functional assay. The source holds these as a separate data set.
In assay [19] the target is T2, hLTBP3-proTGFβ1. Kind of assay: cell-based or functional assay. The source holds these as a separate data set.
Assay [20] deals with T3, hGARP-proTGFβ1. Kind of assay: cell-based or functional assay. This is another data set of the same source.
For assay [21], the target named is T4, hLRRC33-proTGFβ1. Kind of assay: cell-based or functional assay. This is another data set of the same source.

The source of these data is US20240294623A1 (SCHOLAR ROCK, published 2024).

Numbering of substitutions follows the chain as printed.

T4 sequence (Q86YC3 19-650 limits assumed, chain 1 of 2): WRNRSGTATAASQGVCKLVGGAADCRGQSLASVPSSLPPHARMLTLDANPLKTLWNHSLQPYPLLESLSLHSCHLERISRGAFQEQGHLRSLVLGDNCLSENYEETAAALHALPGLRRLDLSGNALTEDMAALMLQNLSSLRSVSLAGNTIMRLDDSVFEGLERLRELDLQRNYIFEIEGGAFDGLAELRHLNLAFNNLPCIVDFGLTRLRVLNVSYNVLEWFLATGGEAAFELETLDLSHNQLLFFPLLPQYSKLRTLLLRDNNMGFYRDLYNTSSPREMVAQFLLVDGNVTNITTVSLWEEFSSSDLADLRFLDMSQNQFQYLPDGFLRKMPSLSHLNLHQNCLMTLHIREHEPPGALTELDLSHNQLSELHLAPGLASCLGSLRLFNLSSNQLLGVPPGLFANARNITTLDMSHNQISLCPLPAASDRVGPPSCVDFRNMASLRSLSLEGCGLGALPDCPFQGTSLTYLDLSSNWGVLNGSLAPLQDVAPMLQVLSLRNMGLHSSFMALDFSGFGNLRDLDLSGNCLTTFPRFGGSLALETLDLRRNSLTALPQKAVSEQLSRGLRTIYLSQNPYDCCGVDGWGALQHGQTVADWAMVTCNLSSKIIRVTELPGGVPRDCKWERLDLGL
T4 sequence (P01137 30-390 limits assumed, chain 2 of 2): as the sequence (P01137 30-390 limits assumed, chain 2 of 2) above
T1 sequence (Q14766 347-1721 limits assumed, chain 1 of 2): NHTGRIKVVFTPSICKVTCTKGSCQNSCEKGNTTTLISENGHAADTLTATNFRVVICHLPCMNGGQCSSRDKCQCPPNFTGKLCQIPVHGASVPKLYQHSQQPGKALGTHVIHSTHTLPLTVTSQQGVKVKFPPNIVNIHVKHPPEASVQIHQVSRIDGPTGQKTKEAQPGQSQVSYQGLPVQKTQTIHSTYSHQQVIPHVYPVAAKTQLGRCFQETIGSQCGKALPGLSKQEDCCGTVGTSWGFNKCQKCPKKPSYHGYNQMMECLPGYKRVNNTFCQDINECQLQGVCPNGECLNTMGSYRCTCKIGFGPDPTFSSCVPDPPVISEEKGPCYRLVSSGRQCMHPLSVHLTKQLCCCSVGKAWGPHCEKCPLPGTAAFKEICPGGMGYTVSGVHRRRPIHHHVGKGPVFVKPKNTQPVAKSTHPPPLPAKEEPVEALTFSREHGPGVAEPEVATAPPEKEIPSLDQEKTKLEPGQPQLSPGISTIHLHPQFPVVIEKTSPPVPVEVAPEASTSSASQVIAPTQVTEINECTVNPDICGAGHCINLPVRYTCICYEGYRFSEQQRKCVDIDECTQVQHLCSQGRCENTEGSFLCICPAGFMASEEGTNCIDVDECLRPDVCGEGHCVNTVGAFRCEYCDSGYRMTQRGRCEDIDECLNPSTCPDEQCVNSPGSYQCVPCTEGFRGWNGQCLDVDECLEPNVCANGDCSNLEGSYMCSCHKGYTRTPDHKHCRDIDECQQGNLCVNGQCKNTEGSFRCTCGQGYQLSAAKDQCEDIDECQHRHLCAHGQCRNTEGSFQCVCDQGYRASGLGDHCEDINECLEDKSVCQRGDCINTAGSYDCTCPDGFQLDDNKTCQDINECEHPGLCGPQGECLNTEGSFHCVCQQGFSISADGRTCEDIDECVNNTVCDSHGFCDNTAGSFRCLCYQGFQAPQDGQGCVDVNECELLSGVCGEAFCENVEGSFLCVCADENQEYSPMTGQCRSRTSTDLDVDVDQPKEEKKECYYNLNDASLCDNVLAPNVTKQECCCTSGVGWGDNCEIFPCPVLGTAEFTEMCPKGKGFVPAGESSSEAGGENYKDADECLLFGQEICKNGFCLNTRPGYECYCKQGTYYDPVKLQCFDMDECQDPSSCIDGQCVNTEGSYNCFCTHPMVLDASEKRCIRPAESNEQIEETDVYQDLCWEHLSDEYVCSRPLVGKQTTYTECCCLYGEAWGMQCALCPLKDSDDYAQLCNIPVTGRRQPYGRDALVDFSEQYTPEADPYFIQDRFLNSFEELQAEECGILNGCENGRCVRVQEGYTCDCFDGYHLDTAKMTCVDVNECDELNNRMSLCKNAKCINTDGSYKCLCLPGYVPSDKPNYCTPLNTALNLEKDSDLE
T1 sequence (P01137 30-390 limits assumed, chain 2 of 2): as the sequence (P01137 30-390 limits assumed, chain 2 of 2) above
T2 sequence (Q9NS15 44-1303 limits assumed, chain 1 of 2): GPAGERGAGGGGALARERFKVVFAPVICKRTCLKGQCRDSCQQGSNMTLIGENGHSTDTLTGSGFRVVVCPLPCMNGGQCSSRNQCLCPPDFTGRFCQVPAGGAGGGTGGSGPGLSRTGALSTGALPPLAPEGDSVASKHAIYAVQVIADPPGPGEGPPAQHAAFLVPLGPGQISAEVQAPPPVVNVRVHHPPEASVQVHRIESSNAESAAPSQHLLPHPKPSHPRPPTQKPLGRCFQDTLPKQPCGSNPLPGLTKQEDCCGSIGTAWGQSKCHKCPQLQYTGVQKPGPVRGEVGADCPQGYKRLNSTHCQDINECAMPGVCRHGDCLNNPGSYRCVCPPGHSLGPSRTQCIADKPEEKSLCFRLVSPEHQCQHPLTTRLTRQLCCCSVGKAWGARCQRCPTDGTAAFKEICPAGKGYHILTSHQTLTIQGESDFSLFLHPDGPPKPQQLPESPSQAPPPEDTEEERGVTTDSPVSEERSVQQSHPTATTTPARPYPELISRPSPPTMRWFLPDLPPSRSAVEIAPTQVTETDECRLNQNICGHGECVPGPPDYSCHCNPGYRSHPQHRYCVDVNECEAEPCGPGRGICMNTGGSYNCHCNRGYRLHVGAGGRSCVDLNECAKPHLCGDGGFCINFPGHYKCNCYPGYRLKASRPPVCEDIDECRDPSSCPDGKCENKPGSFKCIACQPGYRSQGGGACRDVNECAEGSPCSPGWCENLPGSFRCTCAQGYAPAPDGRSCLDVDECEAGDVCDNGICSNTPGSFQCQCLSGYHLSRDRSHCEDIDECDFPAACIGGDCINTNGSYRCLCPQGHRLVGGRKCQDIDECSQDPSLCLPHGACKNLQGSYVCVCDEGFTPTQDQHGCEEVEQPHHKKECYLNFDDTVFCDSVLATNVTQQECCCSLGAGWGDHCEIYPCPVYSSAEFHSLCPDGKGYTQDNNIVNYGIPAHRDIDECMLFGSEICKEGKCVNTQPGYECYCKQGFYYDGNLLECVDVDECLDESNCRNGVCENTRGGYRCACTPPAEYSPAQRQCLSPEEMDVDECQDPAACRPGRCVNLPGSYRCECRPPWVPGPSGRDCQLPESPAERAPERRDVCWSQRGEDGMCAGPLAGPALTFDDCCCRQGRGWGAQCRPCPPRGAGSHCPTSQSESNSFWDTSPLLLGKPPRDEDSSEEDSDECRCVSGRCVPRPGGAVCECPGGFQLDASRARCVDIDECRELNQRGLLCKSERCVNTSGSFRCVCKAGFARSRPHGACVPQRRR
T2 sequence (P01137 30-390 limits assumed, chain 2 of 2): as the sequence (P01137 30-390 limits assumed, chain 2 of 2) above
Sequence of endogenous LTBP-proTGFβ1 of human LN229 cells (P01137 30-390): as the sequence (P01137 30-390 limits assumed, chain 2 of 2) above

B1: Ab4 (antibody, V domains shown)
VH: EVQLVESGGGLVQPGGSLRLSCAASGFTFSSYSMNWVRQAPGKGLEWVSYISSSSSTIYYADSVKGRFTISRDNAKNSLYLQMNSLRAEDTAVYYCARGVLDYGDMLDPWGQGTLVTVSS
VL: DIQMTQSPSSLSASVGDRVTITCQASQDITNYLNWYQQKPGKAPKLLIYDASNLETGVPSRFSGSGSGTDFTFTISSLQPEDIATYYCQQADNHPPWTFGGGTKVEIK
With B1, the Kd in the assay with hLTBP1-proTGFβ1 [1] is 4.6 nM; with hLTBP3-proTGFβ1 [2] it was 5.5 nM; in the assay with hGARP-proTGFβ1 [3], 2.5 nM; with hLRRC33-proTGFβ1 [4] it was 2.1 nM. Moreover, the “IC50, reporter cell assay” value with hLTBP1-proTGFβ1 [5] worked out at 5.2 nM; with hLTBP3-proTGFβ1 [6], 5.6 nM; with hGARP-proTGFβ1 [7], 0.8 nM; with hLRRC33-proTGFβ1 [8] it was 3.5 nM.

B2: Ab6 (antibody, V domains shown)
VH: B1 VH with A23T, Y32F, N35D, S53P, S55A, S56D, S78T, D108M
VL: DIQMTQSPSSLSASVGDRVTITCQASQDITNYLNWYQQKPGKAPKLLIYDASNLETGVPSRFSGSGSGTDFTFTISSLQPEDIATYYCQQADNHPPWTFGGGTKVEIKR
notes: Fully human IgG4/kappa
For the molecule B2, the Kd worked out at 0.048 nM in the assay with mLRRC33-proTGFβ1; 0.018 nM with hLTBP1-proTGFβ1 [9]; 0.029 nM with hLTBP3-proTGFβ1 [10]; 0.027 nM with hGARP-proTGFβ1 [11]; 0.063 nM with hLRRC33-proTGFβ1 [12]; 0.024 nM in the assay with mLTBP1-proTGFβ1. Besides, the Kd amounted to 0.028 nM in the assay with mLTBP3-proTGFβ1; 0.021 nM with mGARP-proTGFβ1; 0.207 nM with hLTBP1-proTGFβ1 [13]; 0.123 nM with hLTBP3-proTGFβ1 [14]; 0.404 nM with hGARP-proTGFβ1 [15]; 0.336 nM with hLRRC33-proTGFβ1 [16]. In addition, the Kd stood at 0.018 nM in the assay with hLTBP1-proTGFβ1 [1], 0.029 nM in the assay with hLTBP3-proTGFβ1 [2], 0.027 nM with hGARP-proTGFβ1 [3] and 0.063 nM with hLRRC33-proTGFβ1 [4].

B3: Ab33 (antibody, V domains shown)
VH: B1 VH with Y32F, S53P, S55A, S56D, S78T, R98H
VL: B1 VL
As for B3, the Kd with hLTBP1-proTGFβ1 [13] is 0.179 nM; with hLTBP3-proTGFβ1 [14] it was 0.111 nM; in the assay with hGARP-proTGFβ1 [15], 0.265 nM; with hLRRC33-proTGFβ1 [16] it was 0.339 nM; with hLTBP1-proTGFβ1 [1], 0.011 nM; in the assay with hLTBP3-proTGFβ1 [2], 0.007 nM. Further, the Kd in the assay with hGARP-proTGFβ1 [3] stood at 0.0078 nM; in the assay with hLRRC33-proTGFβ1 [4], 0.046 nM. The “IC50, reporter cell assay” value in the assay with hLTBP1-proTGFβ1 [5] amounted to 1.6 nM; in the assay with hLTBP3-proTGFβ1 [6], 1.1 nM; with hGARP-proTGFβ1 [7] it was 0.2 nM; with hLRRC33-proTGFβ1 [8], 0.7 nM.

B4: Ab26 (antibody, V domains shown)
VH: B1 VH with Y32F, N35D, S53P, S54D, S55A, S78T
VL: B1 VL
In the case of B4, the dissociation constant Kd is 0.221 nM in the assay with hLTBP1-proTGFβ1 [13]; 0.173 nM with hLTBP3-proTGFβ1 [14]; 0.625 nM in the assay with hGARP-proTGFβ1 [15]; 0.36 nM in the assay with hLRRC33-proTGFβ1 [16]; 0.028 nM with hLTBP1-proTGFβ1 [1]; 0.023 nM with hLTBP3-proTGFβ1 [2]. Also, the Kd was determined as 0.014 nM with hGARP-proTGFβ1 [3] and 0.13 nM in the assay with hLRRC33-proTGFβ1 [4]. For the same molecule, the “IC50, reporter cell assay” value stood at 0.7 nM with hLTBP1-proTGFβ1 [5], 0.7 nM with hLTBP3-proTGFβ1 [6], 0.3 nM with hGARP-proTGFβ1 [7] and 0.3 nM with hLRRC33-proTGFβ1 [8].

B5: Ab29 (antibody, V domains shown)
VH: B1 VH with G16R, Y32F, S33A, S53P, S54D, S55A, D62G, A97V, G99A
VL: B1 VL
With B5, the Kd with hLTBP1-proTGFβ1 [13] came to 0.189 nM; with hLTBP3-proTGFβ1 [14], 0.121 nM; with hGARP-proTGFβ1 [15], 0.307 nM; with hLRRC33-proTGFβ1 [16] it was 0.302 nM; with hLTBP1-proTGFβ1 [1], 0.012 nM; with hLTBP3-proTGFβ1 [2], 0.011 nM. In addition, the Kd with hGARP-proTGFβ1 [3] was 0.0055 nM; in the assay with hLRRC33-proTGFβ1 [4], 0.043 nM. For the same molecule, the “IC50, reporter cell assay” value was found to be 0.5 nM with hLTBP1-proTGFβ1 [5], 0.8 nM with hLTBP3-proTGFβ1 [6], 0.3 nM with hGARP-proTGFβ1 [7] and 0.5 nM with hLRRC33-proTGFβ1 [8].

B6: Ab46 (hIgG4) (antibody, V domains shown)
VH: EVQLLESGGGLVQPGGSLRLSCAASGFTFADYAMTWVRQAPGKGLEWVSAISGSGAATYFADSVKGRFTISRDNSKNTLYLQMNSLRAEDTAVYYCARVSSGHWDYDYWGQGTLVTVSS
VL: DIQLTQSPSSLSASVGDRVTITCRASQSISSYLNWYQQKPGKAPKLLIYAASGLESGVPSRFSGSGSGTDFTLTISSLQPEDFATYYCQQTYGVPLTFGGGTKVEIK
On to B6, for which the “mAb IC50” value in assay [17] is 0.95 nM.

B7: Ab3 (antibody, V domains shown)
VH: B6 VH with A30R, D31N, T35S, A50S, A56G, F60Y, Y106F
VL: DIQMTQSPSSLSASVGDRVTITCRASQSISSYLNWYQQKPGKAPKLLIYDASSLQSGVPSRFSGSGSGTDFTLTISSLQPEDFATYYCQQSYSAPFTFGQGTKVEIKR
For the molecule B7, the Kd in the assay with hLTBP1-proTGFβ1 [13] was 0.47 nM; with hLTBP3-proTGFβ1 [14] it was 0.459 nM; with hGARP-proTGFβ1 [15] it was 17.3 nM; with hLRRC33-proTGFβ1 [16], 8.52 nM; with hLTBP1-proTGFβ1 [1], 13 nM; with hLTBP3-proTGFβ1 [2] it was 16.2 nM. Also, the Kd was 28 nM with hGARP-proTGFβ1 [3] and 35 nM in the assay with hLRRC33-proTGFβ1 [4]. In addition, the “IC50, in vitro potency assay” value in the assay with hLTBP1-proTGFβ1 [18] worked out at 24.3 nM; with hLTBP3-proTGFβ1 [19], 10.4 nM; with hGARP-proTGFβ1 [20], 0.981 nM; in the assay with hLRRC33-proTGFβ1 [21] it was 0.858 nM.

For orientation: Kd means a measure of binding affinity in units of concentration. A higher Kd goes with lower affinity.
